Assay results: US20030068675, “Position dependent recognition of GNN nucleotide triplets by zinc fingers” (published 2003)
Numbering of substitutions follows the chain as printed.

Key:
Assay in all cases: EMSA
Conditions in all cases: tags: MBP fusion
ZFP SBS#897 = target: T1, ZFP SBS#897 (synthetic)
T1 chain: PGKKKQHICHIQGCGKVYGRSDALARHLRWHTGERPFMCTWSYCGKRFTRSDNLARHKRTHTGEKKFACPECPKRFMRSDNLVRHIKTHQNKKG
Procedure, shortened: (§1)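 Purified ZFP was titrated against labeled double-stranded target (1 nM or lower, at least 10-fold below expected Kd) carrying the natural binding site with flanks. Binding buffer was 10 mM Tris pH 7.5, 100 mM KCl, 1 mM MgCl2, 0.1 mM ZnCl2, 5 mM DTT, 10% glycerol, 0.02% BSA, with equilibration for at least 45 min. Bound and free target were separated on a 10% polyacrylamide gel.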

ZFP SBS#817 = target: T2, ZFP SBS#817 (synthetic)
T2 chain: T1 chain with A23S, A25T, V83A
Procedure, shortened: as §1

ZFP SBS#884 = target: T3, ZFP SBS#884 (synthetic)
T3 chain: T1 chain with A23S, A25T
Procedure, shortened: as §1

ZFP SBS#828 = target: T4, ZFP SBS#828 (synthetic)
T4 chain: T1 chain with R20E, S21K, D22A, A23N, A25T, N81E, L82R, V83K
Procedure, shortened: as §1

ZFP SBS#829 = target: T5, ZFP SBS#829 (synthetic)
T5 chain: T1 chain with R20E, S21K, D22A, A23N, A25T, N81T, V83K, R84K
Procedure, shortened: as §1

ZFP SBS#670 = target: T6, ZFP SBS#670 (synthetic)
T6 chain: T1 chain with A23N, N53A, R78D, S79R, D80S, V83T
Procedure, shortened: as §1

ZFP SBS#801 = ZFP SBS#801 (synthetic)
Sequence of ZFP SBS#801 (synthetic) (chain, as listed by the source): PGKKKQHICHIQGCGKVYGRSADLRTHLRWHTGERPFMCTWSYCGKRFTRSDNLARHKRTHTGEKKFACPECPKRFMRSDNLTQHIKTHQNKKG
Procedure, shortened: as §1

ZFP SBS#668 = target: T7, ZFP SBS#668 (synthetic)
T7 chain: T1 chain with R20E, S21R, D22G, A23T, N81A, V83A
Procedure, shortened: as §1

ZFP SBS#842 = target: T8, ZFP SBS#842 (synthetic, UniProt P08047)
T8 chain: T1 chain with R20D, S21R, D22S, A23H, A25T, N53A, V83A
Procedure, shortened: as §1

ZFP SBS#888 = target: T9, ZFP SBS#888 (synthetic)
T9 chain: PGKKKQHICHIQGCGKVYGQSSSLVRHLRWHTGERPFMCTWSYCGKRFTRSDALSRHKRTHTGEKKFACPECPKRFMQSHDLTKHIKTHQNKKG
Procedure, shortened: as §1

ZFP SBS#894 = target: T10, ZFP SBS#894 (synthetic)
T10 chain: T9 chain with S21R, S23A, V25A
Procedure, shortened: as §1

ZFP SBS#887 = target: T11, ZFP SBS#887 (synthetic)
T11 chain: T9 chain with S21R, S23A, V25A, H80G, T83R, K84T
Procedure, shortened: as §1

ZFP SBS#891 = target: T12, ZFP SBS#891 (synthetic)
T12 chain: T9 chain with H80G, D81S, T83R, K84T
Procedure, shortened: as §1

ZFP SBS#850 = ZFP SBS#850 (synthetic)
Procedure, shortened: as §1

ZFP SBS#672 = target: T13, ZFP SBS#672 (synthetic)
T13 chain: T1 chain with R50D, S51R, D52S, A55T, N81E, V83R, R84T
Procedure, shortened: as §1

ZFP SBS#848 = target: T14, ZFP SBS#848 (synthetic, UniProt P08047)
T14 chain: T1 chain with R20D, S21R, D22S, A23S, A25T, N81H, V83S
Procedure, shortened: as §1

ZFP SBS#836 = target: T15, ZFP SBS#836 (synthetic, UniProt P08047)
T15 chain: T1 chain with R20E, S21R, D22G, A23T, N81H, V83S
Procedure, shortened: as §1

ZFP SBS#674 = target: T16, ZFP SBS#674 (synthetic)
T16 chain: T1 chain with A23E, A25R, R26T, S51A, N53T, A55R, N81T, V83K, R84K
Procedure, shortened: as §1

ZFP SBS#818 = ZFP SBS#818 (synthetic)
Procedure, shortened: as §1

ZFP SBS#825 = ZFP SBS#825 (synthetic)
Procedure, shortened: as §1

ZFP SBS#673 = ZFP SBS#673 (synthetic)
Sequence of ZFP SBS#673 (synthetic) (chain, as listed by the source): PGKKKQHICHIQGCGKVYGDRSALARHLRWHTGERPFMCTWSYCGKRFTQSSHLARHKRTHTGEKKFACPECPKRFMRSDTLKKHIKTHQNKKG
Procedure, shortened: as §1

ZFP SBS#662 = ZFP SBS#662 (synthetic, UniProt P08047)
Sequence of ZFP SBS#662 (P08047 other isoform, or with tags, fused parts or gaps): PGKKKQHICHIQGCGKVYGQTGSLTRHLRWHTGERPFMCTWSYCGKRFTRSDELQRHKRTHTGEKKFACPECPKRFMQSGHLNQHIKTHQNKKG
Procedure, shortened: as §1

ZFP SBS#663 = target: T17, ZFP SBS#663 (synthetic)
T17 chain: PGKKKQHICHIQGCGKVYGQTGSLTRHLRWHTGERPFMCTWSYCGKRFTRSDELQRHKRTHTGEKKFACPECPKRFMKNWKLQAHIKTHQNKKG
Procedure, shortened: as §1

ZFP SBS#664 = target: T18, ZFP SBS#664 (synthetic)
T18 chain: T17 chain with S51A, E53T, Q55R, K78A, N79S, W80S, K81R, Q83A, A84T
Procedure, shortened: as §1

ZFP SBS#667 = target: T19, ZFP SBS#667 (synthetic)
T19 chain: T1 chain with R20D, S21R, D22S, A23N, A25T, N53E, A55R, R56T, V83A
Procedure, shortened: as §1

ZFP SBS#804 = ZFP SBS#804 (synthetic)
Procedure, shortened: as §1

ZFP SBS#803 = target: T20, ZFP SBS#803 (synthetic)
T20 chain: T9 chain with S23D, V25Q, A53E, S55Q, H80G, D81S, K84R
Procedure, shortened: as §1

ZFP SBS#671 = target: T21, ZFP SBS#671 (synthetic)
T21 chain: T1 chain with A23N, R50D, S51R, D52S, A55T, N81E, V83R, R84T
Procedure, shortened: as §1

ZFP SBS#669 = target: T22, ZFP SBS#669 (synthetic)
T22 chain: T1 chain with A23E, A25R, R26T, R78D, S79R, D80S, V83T
Procedure, shortened: as §1

ZFP SBS#738 = target: T23, ZFP SBS#738 (synthetic)
T23 chain: T1 chain with R20E, S21R, D22G, A23T, A25T, R26T, N53H, A55S, N81D, V83R
Procedure, shortened: as §1

ZFP SBS#847 = target: T24, ZFP SBS#847 (synthetic)
T24 chain: T1 chain with A23D, A25T, R50Q, D52G, N53H, A55T, V83T, R84T
Procedure, shortened: as §1

ZFP SBS#835 = target: T25, ZFP SBS#835 (synthetic)
T25 chain: T1 chain with S21A, A23T, A25R, R50Q, D52G, N53H, A55T, V83T, R84T
Procedure, shortened: as §1

B1: GAGGAGGTGA (dsDNA)
DNA 1: GAGGAGGTGA
DNA 2: TCACCTCCTC
B1 gave a Kd (ZFP SBS#897) of 0.07 nM, a Kd (ZFP SBS#817) of 0.31 nM and a Kd (ZFP SBS#884) of 0.15 nM.

B2: GCGGAGGACC (dsDNA)
DNA 1: GCGGAGGACC
DNA 2: GGTCCTCCGC
B2 was tested, and the Kd (ZFP SBS#828) was 0.1 nM and the Kd (ZFP SBS#829) was 0.52 nM.

B3: GACGTGGAGG (dsDNA)
DNA 1: GACGTGGAGG
DNA 2: CCTCCACGTC
B3 gave a Kd (ZFP SBS#670) of 0.57 nM.

B4: AAGGAGTCGC (dsDNA)
DNA 1: AAGGAGTCGC
DNA 2: GCGACTCCTT
B4 showed a Kd (ZFP SBS#801) of 0.85 nM.

B5: GTGGAGGCCA (dsDNA)
DNA 1: GTGGAGGCCA
DNA 2: TGGCCTCCAC
With B5 the Kd (ZFP SBS#668) was 1.13 nM.

B6: GAGGTGGGCT (dsDNA)
DNA 1: GAGGTGGGCT
DNA 2: AGCCCACCTC
B6 showed a Kd (ZFP SBS#842) of 5.4 nM.

B7: TCAGTGGTAT (dsDNA)
DNA 1: TCAGTGGTAT
DNA 2: ATACCACTGA
In the case of B7, the Kd (ZFP SBS#888) is reported as 14 nM, the Kd (ZFP SBS#894) is reported as 6.15 nM and the Kd (ZFP SBS#887) is reported as 23.8 nM. It also gave a Kd (ZFP SBS#891) of 18.5 nM.

B8: CAGGCTGTGG (dsDNA)
DNA 1: CAGGCTGTGG
DNA 2: CCACAGCCTG
B8 was tested, and the Kd (ZFP SBS#850) was 17 nM.

B9: TCGGACGTGG (dsDNA)
DNA 1: TCGGACGTGG
DNA 2: CCACGTCCGA
Work on B9 yielded a Kd (ZFP SBS#672) of 24 nM.

B10: GGGGAGGCCC (dsDNA)
DNA 1: GGGGAGGCCC
DNA 2: GGGCCTCCCC
With B10 the Kd (ZFP SBS#848) was 49.5 nM and the Kd (ZFP SBS#836) was 24.2 nM.

B11: GCGGCGTCGG (dsDNA)
DNA 1: GCGGCGTCGG
DNA 2: CCGACGCCGC
In the case of B11, the Kd (ZFP SBS#674) is reported as 27.5 nM.

B12: GAATGGGCAG (dsDNA)
DNA 1: GAATGGGCAG
DNA 2: CTGCCCATTC
For B12, the Kd (ZFP SBS#818) was 167 nM and the Kd (ZFP SBS#825) was 37.3 nM.

B13: GCGGGTGTCT (dsDNA)
DNA 1: GCGGGTGTCT
DNA 2: AGACACCCGC
B13 gave a Kd (ZFP SBS#673) of 48.3 nM.

B14: AGAGCGGCAC (dsDNA)
DNA 1: AGAGCGGCAC
DNA 2: GTGCCGCTCT
For B14, the Kd (ZFP SBS#662) was 50 nM, the Kd (ZFP SBS#663) was 115 nM and the Kd (ZFP SBS#664) was 125 nM.

B15: GAGTCGGACG (dsDNA)
DNA 1: GAGTCGGACG
DNA 2: CGTCCGACTC
Work on B15 yielded a Kd (ZFP SBS#667) of 50 nM.

B16: GCAGCGGCTC (dsDNA)
DNA 1: GCAGCGGCTC
DNA 2: GAGCCGCTGC
In the case of B16, the Kd (ZFP SBS#804) is reported as 82.5 nM and the Kd (ZFP SBS#803) is reported as 57.5 nM.

B17: TCGGACGAGT (dsDNA)
DNA 1: TCGGACGAGT
DNA 2: ACTCGTCCGA
With B17 the Kd (ZFP SBS#671) was 64 nM.

B18: GACGAGTCGG (dsDNA)
DNA 1: GACGAGTCGG
DNA 2: CCGACTCGTC
For B18, the Kd (ZFP SBS#669) was 90 nM.

B19: GCGGGGTCCG (dsDNA)
DNA 1: GCGGGGTCCG
DNA 2: CGGACCCCGC
B19 gave a Kd (ZFP SBS#738) of 120 nM.

B20: TAGGGAGCGT (dsDNA)
DNA 1: TAGGGAGCGT
DNA 2: ACGCTCCCTA
B20 gave a Kd (ZFP SBS#847) of 150 nM and a Kd (ZFP SBS#835) of 150 nM.
